Tests used:
Test in all cases: cell-based or functional assay
[1] = molecular target: HIV-1 MGRM-F1-013 Env (HIV-1)
[2] = molecular target: HIV-1 92RW020 Env (HIV-1)
[3] = molecular target: HIV-1 MGRM-A-005 Env (HIV-1)
[4] = molecular target: HIV-1 94UG103 Env (HIV-1)
[5] = molecular target: HIV-1 MGRM-A-010 Env (HIV-1)
[6] = molecular target: HIV-1 VLGCA1 Env (HIV-1)
[7] = molecular target: HIV-1 92RW024 Env (HIV-1)
[8] = molecular target: HIV-1 MGRM-A-006 Env (HIV-1)
[9] = molecular target: HIV-1 92RW021 Env (HIV-1)
[10] = molecular target: HIV-1 92RW009 Env (HIV-1)
[11] = molecular target: HIV-1 MGRM-A-003 Env (HIV-1)
[12] = molecular target: HIV-1 MGRM-A-014 Env (HIV-1)
[13] = molecular target: HIV-1 94KE105 Env (HIV-1)
[14] = molecular target: HIV-1 MGRM-A-002 Env (HIV-1)
[15] = molecular target: HIV-1 92UG037 Env (HIV-1)
[16] = molecular target: HIV-1 MGRM-A-001 Env (HIV-1)
[17] = molecular target: HIV-1 93UG077 Env (HIV-1)
[18] = molecular target: HIV-1 MGRM-A-013 Env (HIV-1)
[19] = molecular target: HIV-1 92RW026 Env (HIV-1)
[20] = molecular target: HIV-1 MGRM-A-011 Env (HIV-1)
[21] = molecular target: HIV-1 93RW029 Env (HIV-1)
[22] = molecular target: HIV-1 92RW008 Env (HIV-1)

Row | Substance | neutralization IC50 [2] | neutralization IC50 [3] | neutralization IC50 [4] | neutralization IC50 [5] | neutralization IC50 [6] | neutralization IC50 [7] | neutralization IC50 [8] | neutralization IC50 [9] | neutralization IC50 [10] | neutralization IC50 [11] | neutralization IC50 [12] | neutralization IC50 [13] | neutralization IC50 [14] | neutralization IC50 [15] | neutralization IC50 [16] | neutralization IC50 [17] | neutralization IC50 [18] | neutralization IC50 [19] | neutralization IC50 [20] | neutralization IC50 [21] | further results
1 | 2F5 (antibody) | 3.36 µg/mL | 5.7 µg/mL | 1.92 µg/mL | 20.8 µg/mL | 3.9 µg/mL | 8.22 µg/mL | 15.7 µg/mL | 4.16 µg/mL | 39.1 µg/mL | 7.37 µg/mL | 1.43 µg/mL | > 50 µg/mL | > 50 µg/mL | 3.24 µg/mL | > 50 µg/mL | 3.3 µg/mL | 0.66 µg/mL | 8.63 µg/mL | > 50 µg/mL | > 50 µg/mL | IC50 (pseudovirus neutralization) [1]: 4.57 µg/mL; neutralization IC50 [22]: 10.4 µg/mL
2 | 2G12 (antibody) | 0.48 µg/mL | > 50 µg/mL | 48.1 µg/mL | 17 µg/mL | > 50 µg/mL | > 50 µg/mL | 13.8 µg/mL | > 50 µg/mL | 26.1 µg/mL | > 50 µg/mL | > 50 µg/mL | 7.22 µg/mL | > 50 µg/mL | 45.2 µg/mL | > 50 µg/mL | > 50 µg/mL | > 50 µg/mL | 17.2 µg/mL | > 50 µg/mL | > 50 µg/mL | IC50 (pseudovirus neutralization) [1]: > 50 µg/mL; neutralization IC50 [22]: 22.5 µg/mL
3 | 4E10 (antibody) | 4.54 µg/mL | 4.09 µg/mL | 4.97 µg/mL | 14.4 µg/mL | 4.58 µg/mL | 8.88 µg/mL | 9.87 µg/mL | 4.87 µg/mL | > 50 µg/mL | 5.94 µg/mL | 1.74 µg/mL | 7.63 µg/mL | 6.45 µg/mL | 8.84 µg/mL | 15.1 µg/mL | 10.6 µg/mL | 1.46 µg/mL | 12.9 µg/mL | 2.88 µg/mL | 15.5 µg/mL | neutralization IC50 [22]: 14.5 µg/mL

Reference: patent publication US20160264649A1
